The source of these data is patent US7387779B2, “Anti-angiogenic proteins and fragments and methods of use thereof” (Beth Israel Deaconess Medical Center, priority 1998, dated 2008).

The test system of assay [1] is C-PAE cells. As to the kind of experiment: Cell attachment assay. The format is cell-based, bovine. The following applies: label = plate coating. As to the method:
The attachment of HUVECs to Tumstatin-coated plates in the presence of integrin subunits α1 through α6, β1, and αvβ3 integrin blocking antibody was examined. This assay was performed according to the method of Senger et al. (Senger, D. R. et al, 1997, Proc. Natl. Acad. Sci. USA 94:13612-7), with minor modification. 96-well plates were coated with either human Tumstatin, mouse laminin-1, or human Type IV collagen (Collaborative Biomedical Prods., Bedford, Mass., USA) at a concentration of 10 μg/ml overnight at 37° C. Vitronectin (Collaborative Biomed. Prods.) at a concentration of 0.5 μg/ml was then used to coat the plates. The remaining protein binding sites were blocked with 100 mg/ml of BSA (Sigma Chemical Co., St. Louis, Mo., USA) in PBS for 2 hours. HUVEC cells were grown to subconfluence (70-80%) in EGM-2 medium, gently trypsinized and resuspended in serum-free medium (1.5×10^5 cells/ml). The cells were mixed with 10 μg/ml of either mouse IgG, (control) (Life Technologies/Gibco BRL, Gaithersberg, Md., USA) or antibody (mouse monoclonal antibody to the human β1 integrin (clone P4C10) (Life Technologies/Gibco BRL); monoclonal antibody to human integrins α1 through α.6 (CHEMICON Int'l, Temecula, Calif., USA); αvβ3 integrin (clone LM609) (CHEMICON Int'l) and incubated for 15 minutes at room temperature, with gentle agitation. One hundred microliters of the cell suspension was then added to each well and incubated for 45 minutes at 37° C. Unattached cells were removed by washing, and the number of attached cells were counted after staining with methylene blue. C-PAE cells were used in separate experiments, following the above procedure.
To determine the attachment of C-PAE cells to plates coated with the Tumstatin deletion mutants, the cell attachment assay was performed as described above (see, e.g., Example 28). Rabbit antibody raised against Tum-4 was prepared as previously described (Kalluri et al., 1997, J. Clin. Invest. 99:2470-8). Goat anti-rabbit IgG antibody conjugated with horseradish peroxidase was purchased from Sigma Chemical Company (St. Louis, Mo., USA). […] Plates coated with Tum-1 (FIG. 36A) were also treated with anti-Tum-4 antibody (1:200 dilution) to block the previously reported (Shahan et al, 1999, Cancer Res. 59:4584-90) αvβ3 binding site, as well as the αvβ5 binding site.
Cell Attachment Activity: Cell attachment using endothelial cells was performed as described above. HUVEC or C-PAE cells were incubated with monoclonal anti-human integrin antibodies, control mouse IgG (10 μg/ml), or synthetic peptide, plated onto pre-coated 96-well plates, and the number of cells attaching to the plates was determined using measurement of methylene blue staining at OD655. […] CNGRC peptide was used as a control.
The cell attachment assay was performed as described above.
Tumstatin produced in 293 human embryonic kidney cells was used to coat tissue culture plates. […] PBS and BSA served as positive and negative controls, respectively.

The test system of another assay is WM-164 cells. Briefly: Attachment of melanoma cells to coated plates. The class given is cell-based, human. The text has this:
Tumstatin and all three of the deletion mutants […] attachment of WM-164 melanoma cells to the plates.

For assay [2], the system named is C-PAE cells. Briefly: Annexin V-FITC apoptosis assay. The class given is cell-based, bovine. The method, then:
Fifty thousand C-PAE cells were added to each well of a 6-well tissue culture plate in DMEM supplemented with 10% FBS for 12 hours. Fresh medium together and either 5 μg/ml Arresten or 40 ng/ml TNFα (positive control) was added at 2, 4 and 6 hour time points. Control wells received an equal of volume of PBS. Detached cells and adherent cells were pooled together and centrifuged at 1500 rpm. Cells were washed with binding buffer (Clontech, Palo Alto, Calif., USA), and phosphatidyl-serine (PS) externalization, an indicator of apoptosis, was measured by labeling with FITC-labeled annexin V (Clontech) according to manufacturer's instructions. Annexin-FITC labeled cells were counted using a FACStar Plus flow cytometer (Becton-Dickinson, Waltham, Mass., USA). For each treatment, 10,000 cells were counted and stored. […] Relative to controls, the percentage of annexin-V-stained (apoptotic) cells increased to about 27% at 2 hours, and near 20% at 4 and 6 hours for the positive control, TNFα. For Arresten-treated cells, the percentage of apoptotic cells was about 18% at 2 hours, and about 23% at 4 and 6 hours.
Annexin V-FITC Labeling. In order to establish apoptosis as the potential mode of action for Canstatin, Annexin V-FITC was used to label externalized phosphatidylserine (PS), to assess apoptotic cells. 0.5×10^6 C-PAE cells, PC-3, 786-O and HEK 293 cells were added to each well of a 6 well tissue culture plate in 10% FBS supplemented DMEM (BioWhittaker, Walkersville, Md., USA) overnight. The next day, fresh medium was added to all wells together with 40 ng/ml TNF-α (positive control) or 15 μg/ml Canstatin. Control cells received an equal volume of PBS. After 24 hours of treatment, medium containing detached cells was collected and attached cells were trypsinized and combined with detached cells and centrifuged at 3,000×g. Cells were then washed and phosphatidyl-serine externalization (an early apoptotic indicator) was measured by labeling with FITC-labeled annexin V (Clontech, Palo Alto, Calif., USA) according to the manufacturer's instructions. Annexin V-FITC-labeled cells were counted using a FAC Star Plus flow cytometer (Becton-Dickenson, Waltham, Mass., USA). For each treatment 15,000 cells were counted and stored in listmode.
C-PAE cells (0.5×10^6 per well) were seeded onto a 6-well plate in 10% FCS supplemented DMEM. The next day, fresh medium containing 10% FCS was added with either 80 ng/ml of TNF-α (positive control) or Tumstatin ranging from 0.02 to 20 μg/ml. Control cells received an equal volume of PBS. After 18 hours of treatment, medium containing floating cells was collected, and attached cells were trypsinized and centrifuged together with floating cells at 3,000×g. The cells were then washed in PBS and resuspended in binding buffer (10 mM HEPES/NaOH, pH 7.4, 140 mM NaCl, 2.5 mM CaCl2). Annexin V-FITC (Clontech, Palo Alto, Calif., USA) was added to a final concentration of 150 ng/ml, and the cells were incubated in the darkness for 10 minutes. The cells were washed again in PBS and resuspended in binding buffer. Annexin V-FITC labeled cells were counted using a FACStar Plus flow cytometer (Becton-Dickinson, Waltham, Mass., USA). For each treatment, 15,000 cells were counted and stored in listmode.
Apoptosis was measured by Annexin V-FITC assay, using the ApoAlert kit (Clontech, Palo Alto, Calif., USA). Propidium iodide was used to stain the nuclei of cells that had died by ways other than apoptosis.
The assay was performed as described above, by treating C-PAE cells with Tumstatin-44-131 for 18 hours. Control cells received PBS.

B1: Tum-1: residues 54 to 244 of Tumstatin, lacking the N-terminal 53 amino acids (SEQ ID NO:22) (protein)
chain: QRAHGQDLGTLGSCLQRFTTMPFLFCNVNDVCNFASRNDYSYWLSTPALMPMNMAPITGRALEPYISRCTVCEGPAIAIAVHSQTTDIPPCPHGWISLWKGFSFIMFTSAGSEGTGQALASPGSCLEEFRASPFLECHGRGTCNYYSNSYSFWLASLNPERMFRKPIPSTVKAGELEKIISRCQVCMKKRH
modifications: Tum-1 (Tumstatin N-53) (amino acids 54-244 of SEQ ID NO10)
In the case of B1, in the assay on C-PAE cells [1], the “inhibition of attachment of C-PAE cells to coated plates by αvβ3 antibody” value was 55.9% and the “inhibition of binding of C-PAE cells to coated plates by αvβ5 antibody” value is given as “not inhibited”. The “binding of WM-164 cells to coated plates” value in the assay with WM-164 cells is recorded as “bind to WM-164 cells”. Besides, the “IC50, induction of endothelial cell apoptosis” value in the assay with C-PAE cells [2] (10% FBS) is “about 5 μg/ml”. In addition, the “Apo (Annexin V-FITC assay)” value in the assay on C-PAE cells [2] (Table 4) turned out to be 5 µg.
